This sample holds only a part of the variants without activity.
Assays:
biotinyl-Phe-oxazolone = experiment: self-aminoacylation, catalytic enhancement (BFO) (fold over background); higher = more active; k-Seq, kA / k0A0; sequences stand for … in GGGAAUGGAUCCACAUCUACGAAUUC…UUCACUGCAGACUUGACGAAGCUG
In short: (§1)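 Mutagenized RNA pools with a 21-nt variable region (0.43 μM) were reacted with each biotinyl-aminoacyl-oxazolone at 2–1250 μM for 90 minutes at room temperature, in 50 μL HEPES/NaCl/KCl/MgCl2/CaCl2 buffer containing 5% acetonitrile at pH 6.9–7.0. RNA captured on streptavidin was quantified by triplicate qPCR and by Illumina sequencing. The fraction reacted for each sequence was fit to a pseudo-first-order model with bootstrapping, and catalytic enhancement is the median kA divided by the uncatalyzed rate, taken as the low-activity peak of a bimodal Gaussian fit.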

biotinyl-Ile-oxazolone = experiment: self-aminoacylation, catalytic enhancement (BIO) (fold over background); higher = more active; k-Seq, kA / k0A0; sequences stand for … in GGGAAUGGAUCCACAUCUACGAAUUC…UUCACUGCAGACUUGACGAAGCUG
In short: as §1

biotinyl-Met-oxazolone = experiment: self-aminoacylation, catalytic enhancement (BMO) (fold over background); higher = more active; k-Seq, kA / k0A0; sequences stand for … in GGGAAUGGAUCCACAUCUACGAAUUC…UUCACUGCAGACUUGACGAAGCUG
In short: as §1

biotinyl-Val-oxazolone = experiment: self-aminoacylation, catalytic enhancement (BVO) (fold over background); higher = more active; k-Seq, kA / k0A0; sequences stand for … in GGGAAUGGAUCCACAUCUACGAAUUC…UUCACUGCAGACUUGACGAAGCUG
In short: as §1

biotinyl-Leu-oxazolone = experiment: self-aminoacylation, catalytic enhancement (BLO) (fold over background); higher = more active; k-Seq, kA / k0A0; sequences stand for … in GGGAAUGGAUCCACAUCUACGAAUUC…UUCACUGCAGACUUGACGAAGCUG
In short: as §1

biotinyl-Trp-oxazolone = experiment: self-aminoacylation, catalytic enhancement (BWO) (fold over background); higher = more active; k-Seq, kA / k0A0; sequences stand for … in GGGAAUGGAUCCACAUCUACGAAUUC…UUCACUGCAGACUUGACGAAGCUG
In short: as §1

Row | Sequence | self-aminoacylation (biotinyl-Phe-oxazolone) | self-aminoacylation (biotinyl-Ile-oxazolone) | self-aminoacylation (biotinyl-Met-oxazolone) | self-aminoacylation (biotinyl-Val-oxazolone) | self-aminoacylation (biotinyl-Leu-oxazolone) | self-aminoacylation (biotinyl-Trp-oxazolone)
1 | AAGUUUGUCAAUAGUCGCAAG [Fam3.1 aminoacylation ribozyme variant] | 3.72 | 2.03 | 1.87 | 1.78 | 2.25 | 1.95
2 | AAGUUUGUUAAUUGUCGCAAG [Fam3.1 aminoacylation ribozyme variant] | 0.994 | 1.09 | 0.992 | 0.926 | 0.933 | 0.92
3 | AAGUUUGUUAGUAGUCGCAAG [Fam3.1 aminoacylation ribozyme variant] | 1.02 | 0.852 | 0.841 | 0.823 | 1.06 | 0.675
4 | AAGUUUUCUAAUAGUAGCAAG [Fam3.1 aminoacylation ribozyme variant] | 2.5 | 1.5 | 1.29 | 1.34 | 1.33 | 1.8
5 | AAGUUUUCUAAUAGUCGCAUG [Fam3.1 aminoacylation ribozyme variant] | 3.44 | 1.78 | 1.4 | 1.2 | 1.85 | 1.91
6 | AAGUUUUCUAAUAGUCGGAAG [Fam3.1 aminoacylation ribozyme variant] | 1.99 | 1.44 | 1.25 | 1.31 | 1.14 | 1.21
7 | AAGUUUUCUACUAGUCGCAAG [Fam3.1 aminoacylation ribozyme variant] | 3.09 | 1.99 | 1.67 | 1.51 | 1.79 | 1.86
8 | AAGUUUUCUGAUAGUCGCAAG [Fam3.1 aminoacylation ribozyme variant] | 2.8 | 1.77 | 1.56 | 1.38 | 1.55 | 1.81
9 | AAGUUUUGUAAUAGUCGCAAG [Fam3.1 aminoacylation ribozyme variant] | 2.1 | 1.64 | 1.53 | 1.55 | 1.5 | 1.84
10 | AAUAACCUAGGUCAUCGGGUG [Fam2.2 aminoacylation ribozyme variant] | 22.8 | 3.18 | 4.25 | 3.3 | 4.57 | 5.23
11 | AAUACACUGGUCAUCGAGUGA [Fam2.1 aminoacylation ribozyme variant] | 8.92 | 3.65 | 4.13 | 3.4 | 4.56 | 6.47
12 | AAUACCCUGGACAUCGAGUGA [Fam2.1 aminoacylation ribozyme variant] | 10.5 | 2.25 | 3.95 | 2.25 | 4.14 | 5.44
13 | AAUACCCUGGCCAUCGAGUGA [Fam2.1 aminoacylation ribozyme variant] | 2.33 | 1.85 | 2.08 | 1.64 | 2.71 | 3.4
14 | AAUACCCUGGUAAUCGAGUGA [Fam2.1 aminoacylation ribozyme variant] | 38.5 | 3.96 | 7.38 | 3.37 | 8.53 | 10.3
15 | AAUACCCUGGUCAACGAGUGA [Fam2.1 aminoacylation ribozyme variant] | 11.1 | 2.88 | 4.19 | 2.53 | 4.32 | 5.89
16 | AAUACCCUGGUCAUCCAGUGA [Fam2.1 aminoacylation ribozyme variant] | 10.6 | 3.01 | 5.25 | 2.88 | 4.96 | 5.84
17 | AAUACCCUGGUCAUCGAGGGA [Fam2.1 aminoacylation ribozyme variant] | 1.13 | 1.51 | 1.18 | 1.94 | 1.58 | 1.85
18 | AAUACCCUGGUGAUCGAGUGA [Fam2.1 aminoacylation ribozyme variant] | 13.1 | 3.23 | 5.35 | 3.02 | 6.6 | 6.66
19 | AAUACCGUGGUCAUCGAGUGA [Fam2.1 aminoacylation ribozyme variant] | 26.4 | 2.89 | 5.12 | 2.81 | 4.83 | 5.14
20 | AAUCACAUAGGUCAUCGGGUG [Fam2.2 aminoacylation ribozyme variant] | 49.2 | 4.88 | 7.73 | 4.18 | 7.16 | 6.45
21 | AAUCACCUAGAUCAUCGGGUG [Fam2.2 aminoacylation ribozyme variant] | 9.55 | 2.75 | 2.41 | 2.68 | 2.55 | 3.99
22 | AAUCACCUAGGCCAUCGGGUG [Fam2.2 aminoacylation ribozyme variant] | 25.5 | 2.88 | 3 | 3.86 | 3.01 | 5.04
23 | AAUCACCUAGGGCAUCGGGUG [Fam2.2 aminoacylation ribozyme variant] | 28 | 3.31 | 3.75 | 3.49 | 3.93 | 5.34
24 | AAUCACCUAGGUAAUCGGGUG [Fam2.2 aminoacylation ribozyme variant] | 14.1 | 2.64 | 2.67 | 2.08 | 3.17 | 4.18
25 | AAUCACCUAGGUCAGCGGGUG [Fam2.2 aminoacylation ribozyme variant] | 28.9 | 4.05 | 4.61 | 2.9 | 4.16 | 4.58

Source: the supplement of paper PMC9233669
